Patent publication US6800470B2, “Mammalian sphingosine kinase type 2 isoforms, cloning, expression and methods of use thereof” (Sankyo Company, Ltd., priority 2000, dated 2004)

T1: mSPHK2 (Mus musculus, UniProt Q9JIA7)
T1 construct: The open reading frames of mSPHK2 and hSPHK2 encode polypeptides of 617 and 618 amino acids, respectively; made in house; host or cells: HEK293 (ATCC CRL-1573), transient transfection; unpurified cytosol or whole lysate
T1 sequence (Q9JIA7 1-617): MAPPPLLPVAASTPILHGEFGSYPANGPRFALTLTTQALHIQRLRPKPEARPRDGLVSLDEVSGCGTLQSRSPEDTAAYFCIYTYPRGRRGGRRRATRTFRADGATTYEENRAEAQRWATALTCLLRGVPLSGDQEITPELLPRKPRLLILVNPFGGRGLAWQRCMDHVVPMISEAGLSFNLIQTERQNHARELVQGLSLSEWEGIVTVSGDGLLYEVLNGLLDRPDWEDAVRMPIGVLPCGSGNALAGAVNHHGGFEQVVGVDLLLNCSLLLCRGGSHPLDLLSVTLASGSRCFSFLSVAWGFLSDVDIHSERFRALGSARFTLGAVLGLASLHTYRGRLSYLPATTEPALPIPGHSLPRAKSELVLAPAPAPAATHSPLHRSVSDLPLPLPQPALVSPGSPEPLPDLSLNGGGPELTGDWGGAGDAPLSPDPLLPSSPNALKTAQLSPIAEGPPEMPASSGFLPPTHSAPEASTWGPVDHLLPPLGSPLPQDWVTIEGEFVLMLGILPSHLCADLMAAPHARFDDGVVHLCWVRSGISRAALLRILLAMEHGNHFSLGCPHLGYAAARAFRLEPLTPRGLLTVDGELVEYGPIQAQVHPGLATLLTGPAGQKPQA


Legend:
[1] = substrate: CCCCCCCCCCCCC/C=C/[C@@H](O)[C@@H](N)CO; assay: SPHK activity assay with recombinant mSPHK2 (cytosol/lysates of transfected HEK293 cells, [g-32P]ATP, TLC); assay type: biochemical, mouse; details: other: recombinant SPHK2
Protocol: HEK293 cells were seeded at 6×10^5 per well in poly-L-lysine coated 6 well plates. […] SPHK activity was determined in the presence of sphingosine, prepared as a complex with 4 mg/ml BSA, and [g-32P] […] 32P-SPP was separated by TLC and quantified with a phosphoimager as previously described.

HEK293 cells [2] = assay: SPHK activity in HEK293 cells transiently transfected with SPHK expression vectors (cytosol and particulate fractions); assay type: cell-based, human; details: 24 hours after transfection of HEK293 cells
Protocol: In FIG. 3A, HEK 293 cells were transiently transfected with an empty vector or with mSPHK2 or hSPHK2 expression vectors. After 24 hours, SPHK activity was measured in cytosol (open bars) and particulate fractions (filled bars). The data are means±S.D. Parental and vector-transfected cells had basal SPHK activities of 26 and 37 pmol/min/mg, respectively.
(§1) Human embryonic kidney cells (HEK293, ATCC CRL-1573) and NIH 3T3 fibroblasts (ATCC CRL-1658) were cultured as described in Olivera, A., Kohama, T., Edsall, L. C., Nava, V., Cuvillier, O., Poulton, S., and Spiegel, S., J. Cell Biol., 147 (1999) 545-558. HEK293 cells were seeded at 6×10^5 per well in poly-L-lysine coated 6 well plates. After 24 hours, cells were transfected with 1 μg of vector alone or with vectors containing sphingosine kinase constructs and 6 μl of “Lipofectamine PLUS” reagent plus 4 μl of “Lipofectamine” reagent per well. One to three days after transfection, cells were harvested and lysed by freeze-thawing as described in Kohama, T., Olivera, A., Edsall, L., Nagiec, M. M., Dickson, R., and Spiegel, S., J. Biol. Chem., 273, (1998), 23722-23728. In some experiments, cell lysates were fractionated into cytosol and membrane fractions by centrifugation at 100,000×g for 60 minutes. SPHK activity was determined in the presence of sphingosine, prepared as a complex with 4 mg/ml BSA, and [g-32P] ATP in kinase buffer (Olivera, A. and Spiegel, S. in Methods in Molecular Biology, (Bird, I. M. ed.), (1998), Vol. 105, 233-242, Humana Press, Inc., Totowa, N.J.), containing 200 mM KCl, unless indicated otherwise. 32P-SPP was separated by TLC and quantified with a phosphoimager as previously described.

HEK293 cells [3] = assay: Mass levels of SPP in HEK293 cells after transfection with SPHK2; assay type: cell-based, human; details: HEK 293 cells after transfection
Protocol: Mass levels of SPP in HEK293 cells transfected with an empty vector (open bars) or with mSPHK2 (filled bars) or with hSPHK2 (hatched bars) were measured as described hereinbelow. The data are expressed as pmol/nmol phospholipid.
Cells were washed with PBS and scraped in 1 ml of methanol containing 2.5 μl concentrated HCl. Lipids were extracted by adding 2 ml chloroform/1M NaCl (1:1, v/v) and 100 μl 3N NaOH and phases separated. The basic aqueous phase containing SPP, and devoid of sphingosine, ceramide, and the majority of phospholipids, was transferred to a siliconized glass tube. The organic phase was re-extracted with 1 ml methanol/1M NaCl (1:1, v/v) plus 50 μl 3N NaOH, and the aqueous fractions were combined. Mass measurement on SPP in the aqueous phase and total phospholipids in the organic phase were measured exactly as described in Edsall, L. C., Pirianov, G. G., and Spiegel, S., J. Neurosci., 17, (1997) 6952-6960; Edsall, L. C., and Spiegel, S., Anal. Biochem., 272, (1999) 80-86).

mSPHK2 = target: T1, mSPHK2; assay: SPHK activity assay with recombinant mSPHK2 (cytosol/lysates of transfected HEK293 cells, [g-32P]ATP, TLC); assay type: biochemical; details: cytosolic activity, kinase buffer of adjusted pH
Protocol: Lanes: 1, D-erythro-sphingosine (“D-erythro-Sph”); 2, D-erythro-dihydrosphingosine (“D-erythro-DHS”); 3, D, L-threo-DHS; 4, N,N-dimethylsphingosine (“DMS”); 5, C2-ceramide; 6, C16-ceramide; 7, diacylglycerol; 8, phosphatidylinositol; 9, phytosphingosine. Data are expressed as percentage of phosphorylation of D-erythro-Sph.
SPHK activity in HEK293 cell lysates after transfection as in FIG. 4A was measured with 10 μM D-erythro-sphingosine in the presence of increasing concentrations of DMS.
SPHK activity was measured with varying concentrations of D-erythro-sphingosine in the absence (open circles) or presence of 10 μM (filled squares) or 20 μM DMS (filled triangles).
FIG. 4D are Lineweaver-Burk plots.
In FIGS. 5B and 5C, the SPHK activity in HEK293 cell lysates was measured 24 hours after transfection with mSPHK1 (FIG. 5B) or mSPHK2 (FIG. 5C) in the absence or presence of increasing concentrations of NaCl (open squares) or KCl (filled circles).
FIG. 5E are Lineweaver-Burk plots of data from FIG. 5D.
HEK293 cells were transfected with mSPHK1a (open circles) or mSPHK2 (filled circles) and the activities of each in cell lysates were measured after 24 hours in the presence of the indicated concentrations of Triton X-100 (FIG. 6A) or BSA (FIG. 6B).
HEK293 cells were transfected with mSPHK1a (circles) or mSPHK2 (triangles) and the activities of each in cell lysates were measured after 24 hours in the presence of the indicated concentrations of phosphatidylserine (filled symbols) or phosphatidylcholine (open symbols). Data are expressed as percentage of control activity measured without any additions.
as §1

Row | pH of optimal activity (mSPHK2) | Molecule | Km [1] | increase of in vitro SPHK activity over basal levels (HEK293 cells [2]) | increase in SPP (HEK293 cells [3])
1 | – | mSPHK2 (Mus musculus) (protein, The open reading frames of mSPHK2 and hSPHK2 encode polypeptides of 617 and 618 amino acids, respectively; made in house; host or cells: HEK293 (ATCC CRL-1573), transient transfection; unpurified cytosol or whole lysate) MAPPPLLPVAASTPILHGEFGSYPANGPRFALTLTTQALHIQRLRPKPEARPRDGLVSLDEVSGCGTLQSRSPEDTAAYFCIYTYPRGRRGGRRRATRTFRADGATTYEENRAEAQRWATALTCLLRGVPLSGDQEITPELLPRKPRLLILVNPFGGRGLAWQRCMDHVVPMISEAGLSFNLIQTERQNHARELVQGLSLSEWEGIVTVSGDGLLYEVLNGLLDRPDWEDAVRMPIGVLPCGSGNALAGAVNHHGGFEQVVGVDLLLNCSLLLCRGGSHPLDLLSVTLASGSRCFSFLSVAWGFLSDVDIHSERFRALGSARFTLGAVLGLASLHTYRGRLSYLPATTEPALPIPGHSLPRAKSELVLAPAPAPAATHSPLHRSVSDLPLPLPQPALVSPGSPEPLPDLSLNGGGPELTGDWGGAGDAPLSPDPLLPSSPNALKTAQLSPIAEGPPEMPASSGFLPPTHSAPEASTWGPVDHLLPPLGSPLPQDWVTIEGEFVLMLGILPSHLCADLMAAPHARFDDGVVHLCWVRSGISRAALLRILLAMEHGNHFSLGCPHLGYAAARAFRLEPLTPRGLLTVDGELVEYGPIQAQVHPGLATLLTGPAGQKPQA | 3.4 µM | – | –
2 | 7.5 | mSPHK2: murine sphingosine kinase type 2, polypeptide of 617 amino acids (SEQ ID NO 12) (protein) MAPPPLLPVAASTPILHGEFGSYPANGPRFALTLTTQALHIQRLRPKPEARPRDGLVSLDEVSGCGTLQSRSPEDTAAYFCIYTYPRGRRGGRRRATRTFRADGATTYEENRAEAQRWATALTCLLRGVPLSGDQEITPELLPRKPRLLILVNPFGGRGLAWQRCMDHVVPMISEAGLSFNLIQTERQNHARELVQGLSLSEWEGIVTVSGDGLLYEVLNGLLDRPDWEDAVRMPIGVLPCGSGNALAGAVSHHGGFEQVVGVDLLLNCSLLLCRGGSHPLDLLSVTLASGSRCFSFLSVAWGFLSDVDIHSERFRALGSARFTLGAVLGLASLHTYRGRLSYLPATTEPALPIPGHSLPRAKSELVLAPAPAPAATHSPLHRSVSDLPLPLPQPALVSPGSPEPLPDLSLNGGGPELTGDWGGAGDAPLSPDPLLPSSPNALKTAQLSPIAEGPPEMPASSGFLPPTHSAPEASTWGPVDHLLPPLGSPLPQDWVTIEGEFVLMLGILTSHLCADLMAAPHARFDDGVVHLCWVRSGISRAALLRIFLAMEHGNHFSLGCPHLGYAAARAFRLEPLTPRGLLTVDGELVEYGPIQAQVHPGLATLLTGPAGQKPQA | – | 20 fold | 2.2 fold
